Measured values: paper PMC6330057 (Nature cell biology, 2018)

Target: the molecule itself
Assay: negative-stain electron microscopy of fibrils

Row | Protein | binding result
1 | CrSSNA1(20-111) (domain or fragment, Chlamydomonas reinhardtii, UniProt Q9XF62 20-111, looked up) EDLREKREEIIKQLREDDAEKAKITQELQILTKRLAQVNESIARKTETKNEYDKVISETEAAYLKILESSQTLLTVLKREAVNIAKKKQASS | binds
2 | CrSSNA1(1-105) (domain or fragment, Chlamydomonas reinhardtii, UniProt Q9XF62 1-105, looked up) MSAQGQALQNHNNELVKCIEDLREKREEIIKQLREDDAEKAKITQELQILTKRLAQVNESIARKTETKNEYDKVISETEAAYLKILESSQTLLTVLKREAVNIAK | binds
